Consider five molecules from patent US20200369769A1 (Bayer, published 2020).

Test [1] concerns the target T1, human ILDR2 (Immunoglobulin Like Domain Containing Receptor 2) (human, UniProt Q71H61 21-639).
T1 sequence (looked up): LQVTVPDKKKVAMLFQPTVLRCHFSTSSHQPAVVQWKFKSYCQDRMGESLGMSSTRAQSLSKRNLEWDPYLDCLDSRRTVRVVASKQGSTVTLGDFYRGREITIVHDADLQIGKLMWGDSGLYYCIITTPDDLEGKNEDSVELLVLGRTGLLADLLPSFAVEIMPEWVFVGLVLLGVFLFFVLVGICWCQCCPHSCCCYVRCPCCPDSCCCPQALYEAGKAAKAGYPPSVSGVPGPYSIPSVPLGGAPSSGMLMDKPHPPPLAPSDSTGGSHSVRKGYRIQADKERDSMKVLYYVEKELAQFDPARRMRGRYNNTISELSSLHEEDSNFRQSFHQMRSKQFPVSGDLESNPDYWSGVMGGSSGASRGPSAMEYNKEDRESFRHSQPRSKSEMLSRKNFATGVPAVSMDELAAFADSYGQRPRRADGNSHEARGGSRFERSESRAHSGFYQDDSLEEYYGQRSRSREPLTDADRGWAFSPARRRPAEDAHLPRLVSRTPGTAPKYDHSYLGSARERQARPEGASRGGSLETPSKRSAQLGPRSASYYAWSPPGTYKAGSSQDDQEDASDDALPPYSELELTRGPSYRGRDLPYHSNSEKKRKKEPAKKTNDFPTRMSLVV
In words: cell-based or functional assay.

Test [2] concerns the target T1, human ILDR2 (Immunoglobulin Like Domain …). In words: flow cytometry titration of hIgG1 on HEK cells stably transfected with human ILDR2; 1:1 equilibrium fit of MFI. The method, then: KD values were determined by flowcytometric quantitation of binding to HEK cells stably transfected with human ILDR2 and use of an algorithm designed to extrapolate affinities based on the binding curve. Briefly, hIgG1 s were added at a binding site concentration range of 3 pM-209 nM to a constant number of cells (100,000 cells/well) over 16 wells in a 96-well plate. One well contained cells without any added IgG to serve as a blank well. The cells were equilibrated for 4 hours at 4° C. An excess of Cy5-labeled goat anti-human polyclonal antibody (Jackson ImmunoResearch 109-606-097) at 90nM was added to each well after one FACS buffer wash of the cells. Cells were washed twice after a 30 minute incubation (at 4° C.) with the labeling pAb and then the Mean Fluorescence Intensity (MFI) was recorded over approximately 10,000 “events” using an Intellicyte flow cytometer. The […] of the IgGs binding to HEK 293 cells expressing ILDR2 were estimated by fitting the MFI vs. the IgG binding site concentration curve using a 1:1 equilibrium model as detailed in Drake and Klakamp (2007).
On the technique in general: In flow cytometry, cells or beads pass a laser one at a time.

B1: 56.02.E10 (antibody, V domains shown)
VH: QVQLVESGGGLVKPGGSLRLSCAASGFTFSNYGMHWVRQAPGKGPEWLAFIRYDGSKKYYADSVRGRFTISRDNSKNMLYLQMNSLRTEDTAVYYCAKEGIAAPGSGYYYGMDVWGQGTTVTVSS
VL: QSALTQPASVSGSPGQSITISCSGTTTDVGRYTLVSWYQHHPGKAPKLIIFEVNKRPSGVSSRFSGSKSGNTASLTISGLQTEDEADYFCCSYTGTTVIFGGGTQLTVL
B1: the “IL2 concentration (% over isotype control), mixed lymphocyte reaction” value in test [1] worked out at 223 % over isotype control.

B2: 74.15.G09 (antibody, V domains shown)
VH: EVQLVESGGGVVQPGRSLRLSCAASGFTFSSYGMHWVRQAPGKGLEWVAVISYDGSNKYYADSVKGRFTISRDNSKNTLYLQMNSLRAEDTAVYYCAKESPSVGLGSYYDFWSGLYGMDVWGQGTTVTVSS
VL: EIVLTQSPGTLSLSPGERVTLSCRTGQRVENLFIAWYQQKPGQAPRLLLYGASNRATGIPDRFSGSGSGTDFTLTISRLEPEDSAVYYCQQYDDSGITFGQGTRLEIK
notes: Full length IgG; The KD assay says 'hIgG1s'
Regarding B2, in test [1], the “IL2 concentration (% over isotype control), mixed lymphocyte reaction” value came out at 86 % over isotype control. Besides, in test [2], the Kd (as a rule, the free concentration of one partner at which half of the binding sites on the other are occupied at equilibrium, for simple one-to-one binding) was 12.4 nM.

B3: 56-02.E08 (antibody, V domains shown)
VH: EVQLVQSGAEVKKPGESLKISCKASGYSFTTYWIGWVRQVPGKGLEWMGIIYPGDYDTRYSPSFQGQVTISADKSINTAYLQWSSLEASDSAMYYCAIGEPFDYWGQGTLVTVSS
VL: not shown
notes: as for B2
Take B3: in test [1], the “IL2 concentration (% over isotype control), mixed lymphocyte reaction” value came out at 74 % over isotype control. For the same molecule, the Kd in test [2] came to 2.7 nM.

B4: 61-02.C05 (antibody, V domains shown)
VH: EVQLVESGGGVVQPGGSLRLSCAASGFTFSSYAMSWVRQAPGKGLEWVSGISSSGGSTQYADSVKGRFTVSRDNSKNTLYLQMKSLRAEDTALYYCAKDFVGVLPDAFDIWGQGTMVTVSS
VL: DIQLTQSPSSLSASVGDRVTITCQASQDTNKYLNWYQQKPGKAPELLIYGASTLESGVPPRFSASGSGTDFTLTINSLQPEDIGRYYCQQYHIPPPSFGGGTKLEIK
notes: Full length IgG; The KD assay says 'hIgG1s'; also called 61-02.005
Turning to B4, the “IL2 concentration (% over isotype control), mixed lymphocyte reaction” value in test [1] amounted to 82 % over isotype control. This molecule had a Kd in test [2] of 10.7 nM.

B5: 59-08.B02 (antibody, V domains shown)
VH: QVQLVQSGAEVKKPGSSVKVSCKASGGTFSSYAISWVRQAPGQGLEWMGGIIPILGIANYAQKFQGRVTITADKSTSTAYMELSSLRSEDTAVYYCARGRLPYGDFWDSWGQGTLVTVSS
VL: not shown
notes: also called BAY1905254; aILDR2
As for B5, in test [1], the “IL2 concentration (% over isotype control), mixed lymphocyte reaction” value is 91 % over isotype control. In test [2], the Kd was determined as 2 nM.
